Assay results from patent US20030148958A1 (PROCTER AND GAMBLE, published 2003).
Where a chain is given by its changes, count along the chain named. Ends that are not written are not given here.

T1: corticotropin releasing factor 2 receptor
T1 sequence (Q13324 whole entry, species assumed, looked up): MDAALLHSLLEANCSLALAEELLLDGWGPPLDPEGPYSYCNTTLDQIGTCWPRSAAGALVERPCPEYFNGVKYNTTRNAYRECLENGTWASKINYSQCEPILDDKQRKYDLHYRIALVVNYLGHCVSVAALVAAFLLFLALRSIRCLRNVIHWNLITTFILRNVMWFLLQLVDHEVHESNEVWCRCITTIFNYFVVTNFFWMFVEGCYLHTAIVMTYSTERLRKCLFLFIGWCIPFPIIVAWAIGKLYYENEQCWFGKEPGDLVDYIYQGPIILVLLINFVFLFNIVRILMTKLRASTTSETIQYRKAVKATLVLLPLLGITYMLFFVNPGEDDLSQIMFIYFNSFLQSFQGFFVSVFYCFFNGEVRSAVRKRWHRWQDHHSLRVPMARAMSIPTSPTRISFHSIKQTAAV

B1: SEQ ID NO 114 (peptide)
peptide: IVLSLDVPIGLLQILLEQARQRAAREQATTNARILARV-NH2
B2: SEQ ID NO 105 (peptide)
peptide: SQEPPISLDLPTQLLREVLEMTKADQLAQQAHSNRKLLDIA-NH2
B3: SEQ ID NO 12 (peptide)
peptide: ZGPPISIDLPFQLLRKMIEIEKQEKEKQQATNNRLLLATV
modifications: C-terminal amide
B4: SEQ ID NO 13 (peptide)
peptide: B3 peptide with N32T, A38D, V40I
modifications: C-terminal amide
B5: SEQ ID NO 102 (peptide)
peptide: SQEPPISLDLPLHLLREVLEMTKADQLAQQAHSNRKLLDIA-NH2
B6: SEQ ID NO 134 (peptide)
peptide: IVLSLDVPIGLLQILLEQAAAAREQATTNARILARV-NH2
B7: SEQ ID NO 128 (peptide)
peptide: IVLSLDVPIGLLQILLEQTRARAAREQATTNARILARV-NH2
B8: SEQ ID NO 100 (peptide)
peptide: SQEPPISLDLPIQLLREVLEMTKADQLAQQAHSNRKLLDIA-NH2
B9: SEQ ID NO 127 (peptide)
peptide: IVLSLDVPIGLLQILLEQAKARAAREQATTNARILARV-NH2
B10: SEQ ID NO 108 (peptide)
peptide: IVLSLDVPIGLLQILLEQTKADAAREQATTNARILARV-NH2
B11: SEQ ID NO 115 (peptide)
peptide: IVLSLDVPIGLLQILLEQEKQRAAREQATTNARILARV-NH2
B12: SEQ ID NO 116 (peptide)
peptide: IVLSLDVPIGLLQILLEQTKANAAREQATTVARILARV-NH2
B13: SEQ ID NO 99 (peptide)
peptide: SQEPPISLDLPTHLLREVLEMTKADQLAQQAHSNRKLLDIA-NH2
B14: SEQ ID NO 125 (peptide)
peptide: IVLSLDVPIGLLQILLEQEKQEAAREQATTNARILARV-NH2
B15: SEQ ID NO 122 (peptide)
peptide: IVLSLDVPIGLLQILLEQARAEAAREQATTNARILARV-NH2
B16: SEQ ID NO 118 (peptide)
peptide: IVLSLDVPIGLLQILLEQERQEAAREQATTNARILARV-NH2
B17: SEQ ID NO 106 (peptide)
peptide: SQEPPISLDLPTYLLREVLEMTKADQLAQQAHSNRKLLDIA-NH2
B18: SEQ ID NO 133 (peptide)
peptide: IVLSLDVPIGLLQILLEQRRAAREQATTNARILARV-NH2

Legend:
[1] = biological target: T1, corticotropin releasing factor 2 …; assay: cell-based or functional assay
[2] = biological target: corticotropin releasing factor 1 receptor; assay: cell-based or functional assay
Wherever CRF1R Emax is given: reference of the scale not given here.
Wherever CRF2R Emax is given: reference of the scale not given here.

Binder | CRF2R EC50 [1] | CRF2R Emax [1] | CRF1R EC50 [2] | CRF1R Emax [2]
B1 | 3.42 nM | 100% | > 100 nM | 6%
B2 | 100 nM | 9.15% | 100 nM | 5.2%
B3 | 9.72 nM | 91% | 928 nM | 73%
B4 | 3.88 nM | 79% | 97.7 nM | 69%
B5 | 100 nM | 13.5% | 100 nM | 7.8%
B6 | > 100 nM | 19% | > 100 nM | 7%
B7 | 2.85 nM | 98% | > 100 nM | 8%
B8 | 100 nM | 9.85% | 100 nM | 6.25%
B9 | 7.79 nM | – | > 100 nM | –
B10 | 79 nM | 97% | > 100 nM | 3%
B11 | 13.6 nM | 98% | > 100 nM | 7%
B12 | 100 nM | 26.4% | 100 nM | 4.8%
B13 | 100 nM | 4.35% | 100 nM | 4.35%
B14 | 4.47 nM | 99% | > 100 nM | 9%
B15 | 3.31 nM | 97% | 1000 nM | 10.7%
B16 | 14.6 nM | 100% | > 100 nM | 5%
B17 | 100 nM | 6.1% | 100 nM | 4.8%
B18 | 12.2 nM | 88% | > 100 nM | 4%
